B1: BBSome complex member BBS1 (Homo sapiens), Q8NFJ9 (parent)
chain: MAAASSSDSDACGAESNEANSKWLDAHYDPMANIHTFSACLALADLHGDGEYKLVVGDLGPGGQQPRLKVLKGPLVMTESPLPALPAAAATFLMEQHEPRTPALALASGPCVYVYKNLRPYFKFSLPQLPPNPLEQDLWNQAKEDRIDPLTLKEMLESIRETAEEPLSIQSLRFLQLELSEMEAFVNQHKSNSIKRQTVITTMTTLKKNLADEDAVSCLVLGTENKELLVLDPEAFTILAKMSLPSVPVFLEVSGQFDVEFRLAAACRNGNIYILRRDSKHPKYCIELSAQPVGLIRVHKVLVVGSTQDSLHGFTHKGKKLWTVQMPAAILTMNLLEQHSRGLQAVMAGLANGEVRIYRDKALLNVIHTPDAVTSLCFGRYGREDNTLIMTTRGGGLIIKILKRTAVFVEGGSEVGPPPAQAMKLNVPRKTRLYVDQTLREREAGTAMHRAFQTDLYLLRLRAARAYLQALESSLSPLSTTAREPLKLHAVVQGLGPTFKLTLHLQNTSTTRPVLGLLVCFLYNEALYSLPRAFFKVPLLVPGLNYPLETFVESLSNKGISDIIKVLVLREGQSAPLLSAHVNMPGSEGLAAA
partner: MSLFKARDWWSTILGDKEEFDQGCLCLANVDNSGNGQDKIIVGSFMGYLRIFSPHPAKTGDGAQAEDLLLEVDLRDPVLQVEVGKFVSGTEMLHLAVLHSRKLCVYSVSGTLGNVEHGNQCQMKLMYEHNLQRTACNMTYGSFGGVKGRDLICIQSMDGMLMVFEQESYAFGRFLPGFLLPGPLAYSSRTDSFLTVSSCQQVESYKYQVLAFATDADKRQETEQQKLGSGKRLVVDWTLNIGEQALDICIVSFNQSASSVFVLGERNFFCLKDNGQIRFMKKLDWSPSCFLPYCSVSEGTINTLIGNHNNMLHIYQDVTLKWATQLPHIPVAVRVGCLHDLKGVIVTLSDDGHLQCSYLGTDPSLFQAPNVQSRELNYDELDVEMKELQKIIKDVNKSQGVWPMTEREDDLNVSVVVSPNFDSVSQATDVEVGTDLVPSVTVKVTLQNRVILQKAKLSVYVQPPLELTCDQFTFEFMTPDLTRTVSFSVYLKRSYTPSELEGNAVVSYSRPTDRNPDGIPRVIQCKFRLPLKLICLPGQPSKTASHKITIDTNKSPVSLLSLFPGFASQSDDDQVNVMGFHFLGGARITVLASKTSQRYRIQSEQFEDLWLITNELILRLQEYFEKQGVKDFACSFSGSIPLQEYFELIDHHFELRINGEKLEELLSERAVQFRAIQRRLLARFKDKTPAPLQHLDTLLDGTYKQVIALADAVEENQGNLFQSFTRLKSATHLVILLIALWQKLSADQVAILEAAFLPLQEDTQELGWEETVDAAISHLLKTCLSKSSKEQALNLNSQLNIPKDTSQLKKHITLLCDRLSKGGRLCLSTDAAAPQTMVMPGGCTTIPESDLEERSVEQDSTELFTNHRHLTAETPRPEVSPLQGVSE

Variants of: B1
Settings: with pthb1_human BBS9, Q3SYG4

Row | effect of a mutation on the interaction | Variant
1 | disrupting interaction strength | MAAASSSDSDACGAESNEANSKWLDAHYDPMANIHTFSACLALADLHGDGEYKLVVGDLGPGGQQPRLKVLKGPLVMTESPLPALPAAAATFLMEQHEPRTPALALASGPCVYVYKNLRPYFKFSLPQLPPNPLEQDLWNQAKEDRIDPLTLKEMLESIRETAEEPLSIQSLRFLQLELSEMEAFVNQHKSNSIKRQTVITTMTTLKKNLADEDAVSCLVLGTENKELLVLDPEAFTILAKMSLPSVPVFLEVSGQFDVEFRLAAACRNGNIYILRRDSKHPKYCIELSAQPVGLIRVHKVLVVGSTQDSLHGFTHKGKKLWTVQMPAAILTMNLLEQHSRGLQAVMAGLANGEVRIYRDKALLNVIHTPDAVTSLCFGRYGREDNTLIMTTRGGGLIIKILKRTAVFVEGGSEVGPPPAQAMKLNVPRKTRLYVDQTLREREAGTAMHRAFQTDLYLLRLRAARAYLQALESSLSPLSTTAREPLKLHAVVQGLGPTFKLTLHLQNTSTTRPVLGLLVCFLYNEALYSLPRAFFKVPLLVPGLNYPLETFVESLSNKGISDIEKVLVLREGQSAPLLSAHVNMPGSEGLAAA [I564E]
2 | disrupting interaction strength | MAAASSSDSDACGAESNEANSKWLDAHYDPMANIHTFSACLALADLHGDGEYKLVVGDLGPGGQQPRLKVLKGPLVMTESPLPALPAAAATFLMEQHEPRTPALALASGPCVYVYKNLRPYFKFSLPQLPPNPLEQDLWNQAKEDRIDPLTLKEMLESIRETAEEPLSIQSLRFLQLELSEMEAFVNQHKSNSIKRQTVITTMTTLKKNLADEDAVSCLVLGTENKELLVLDPEAFTILAKMSLPSVPVFLEVSGQFDVEFRLAAACRNGNIYILRRDSKHPKYCIELSAQPVGLIRVHKVLVVGSTQDSLHGFTHKGKKLWTVQMPAAILTMNLLEQHSRGLQAVMAGLANGEVRIYRDKALLNVIHTPDAVTSLCFGRYGREDNTLIMTTRGGGLIIKILKRTAVFVEGGSEVGPPPAQAMKLNVPRKTRLYVDQTLREREAGTAMHRAFQTDLYLLRLRAARAYLQALESSLSPLSTTAREPLKLHAVVQGLGPTFKLTLHLQNTSTTRPVLGLLVCFLYNEALYSLPRAFFKVPLLVPGLNYPLETFVESLSNKGISDIKKVLVLREGQSAPLLSAHVNMPGSEGLAAA [I564K]
3 | disrupting interaction strength | MAAASSSDSDACGAESNEANSKWLDAHYDPMANIHTFSACLALADLHGDGEYKLVVGDLGPGGQQPRLKVLKGPLVMTESPLPALPAAAATFLMEQHEPRTPALALASGPCVYVYKNLRPYFKFSLPQLPPNPLEQDLWNQAKEDRIDPLTLKEMLESIRETAEEPLSIQSLRFLQLELSEMEAFVNQHKSNSIKRQTVITTMTTLKKNLADEDAVSCLVLGTENKELLVLDPEAFTILAKMSLPSVPVFLEVSGQFDVEFRLAAACRNGNIYILRRDSKHPKYCIELSAQPVGLIRVHKVLVVGSTQDSLHGFTHKGKKLWTVQMPAAILTMNLLEQHSRGLQAVMAGLANGEVRIYRDKALLNVIHTPDAVTSLCFGRYGREDNTLIMTTRGGGLIIKILKRTAVFVEGGSEVGPPPAQAMKLNVPRKTRLYVDQTLREREAGTAMHRAFQTDLYLLRLRAARAYLQALESSLSPLSTTAREPLKLHAVVQGLGPTFKLTLHLQNTSTTRPVLGLLVCFLYNEALYSLPRAFFKVPLLVPGLNYPLETFVESLSNKGISDIAKVLVLREGQSAPLLSAHVNMPGSEGLAAA [I564A]
4 | with no effect | MAAASSSDSDACGAESNEANSKWLDAHYDPMANIHTFSACLALADLHGDGEYKLVVGDLGPGGQQPRLKVLKGPLVMTESPLPALPAAAATFLMEQHEPRTPALALASGPCVYVYKNLRPYFKFSLPQLPPNPLEQDLWNQAKEDRIDPLTLKEMLESIRETAEEPLSIQSLRFLQLELSEMEAFVNQHKSNSIKRQTVITTMTTLKKNLADEDAVSCLVLGTENKELLVLDPEAFTILAKMSLPSVPVFLEVSGQFDVEFRLAAACRNGNIYILRRDSKHPKYCIELSAQPVGLIRVHKVLVVGSTQDSLHGFTHKGKKLWTVQMPAAILTMNLLEQHSRGLQAVMAGLANGEVRIYRDKALLNVIHTPDAVTSLCFGRYGREDNTLIMTTRGGGLIIKILKRTAVFVEGGSEVGPPPAQAMKLNVPRKTRLYVDQTLREREAGTAMHRAFQTDLYLLRLRAARAYLQALESSLSPLSTTAREPLKLHAVVQGLGPTFKLTLHLQNTSTTRPVLGLLVCFLYNEALYSLPRAFFKVPLLVPGLNYPLETFVESLSNKGISDIIEVLVLREGQSAPLLSAHVNMPGSEGLAAA [K565E]

Variants of: B1
Settings: with pthb1_human BBS9, Q3SYG4
Remark: another data set of the same source

Row | effect of a mutation on the interaction | Variant
5 | with no effect | MAAASSSDSDACGAESNEANSKWLDAHYDPMANIHTFSACLALADLHGDGEYKLVVGDLGPGGQQPRLKVLKGPLVMTESPLPALPAAAATFLMEQHEPRTPALALASGPCVYVYKNLRPYFKFSLPQLPPNPLEQDLWNQAKEDRIDPLTLKEMLESIRETAEEPLSIQSLRFLQLELSEMEAFVNQHKSNSIKRQTVITTMTTLKKNLADEDAVSCLVLGTENKELLVLDPEAFTILAKMSLPSVPVFLEVSGQFDVEFRLAAACRNGNIYILRRDSKHPKYCIELSAQPVGLIRVHKVLVVGSTQDSLHGFTHKGKKLWTVQMPAAILTMNLLEQHSRGLQAVMAGLANGEVRIYRDKALLNVIHTPDAVTSLCFGRYGREDNTLIMTTRGGGLIIKILKRTAVFVEGGSEVGPPPAQAMKLNVPRKTRLYVDQTLREREAGTAMHRAFQTDLYLLRLRAARAYLQALESSLSPLSTTAREPLKLHAVVQGLGPTFKLTLHLQNTSTTRPVLGLLVCFLYNEALYSLPRAFFKVPLLVPGLNYPLETFVESLSNKGISDIAKVLVLREGQSAPLLSAHVNMPGSEGLAAA [I564A]

— IntAct's records for PubMed 29039417
